Positions of bridges follow the written chain, without caps; N, C: chain ends. Non-standard residues stand in square brackets, D forms with d. Nle = CCCC[C@H](N)C(=O)O
B1: Ac-D-Arg-c[Cys-Pro-His-D-Phe-His-Trp-Cys]-Pro-Pro-D-Arg-D-Arg-NH2 (peptide)
peptide: Ac-[dR]CPH[dF]HWCPP[dR][dR]-NH2
modifications: disulfide 2-8
SMILES: CC(=O)N[C@H](CCCNC(=N)N)C(=O)N[C@H]1CSSC[C@@H](C(=O)N2CCC[C@H]2C(=O)N2CCC[C@H]2C(=O)N[C@H](CCCNC(=N)N)C(=O)N[C@H](CCCNC(=N)N)C(N)=O)NC(=O)[C@H](Cc2c[nH]c3ccccc23)NC(=O)[C@H](Cc2c[nH]cn2)NC(=O)[C@@H](Cc2ccccc2)NC(=O)[C@H](Cc2c[nH]cn2)NC(=O)[C@@H]2CCCN2C1=O
B2: Ac-c[Cys-Pro-His-D-Phe-His-Trp-Cys]-Pro-Pro-D-Arg-Glu-Nle-D-Arg-D-Arg-D-Arg-NH2 (peptide)
peptide: Ac-CPH[dF]HWCPP[dR]E[Nle][dR][dR][dR]-NH2
modifications: disulfide 1-7
SMILES: CCCC[C@H](NC(=O)[C@H](CCC(=O)O)NC(=O)[C@@H](CCCNC(=N)N)NC(=O)[C@@H]1CCCN1C(=O)[C@@H]1CCCN1C(=O)[C@@H]1CSSC[C@H](NC(C)=O)C(=O)N2CCC[C@H]2C(=O)N[C@@H](Cc2c[nH]cn2)C(=O)N[C@H](Cc2ccccc2)C(=O)N[C@@H](Cc2c[nH]cn2)C(=O)N[C@@H](Cc2c[nH]c3ccccc23)C(=O)N1)C(=O)N[C@H](CCCNC(=N)N)C(=O)N[C@H](CCCNC(=N)N)C(=O)N[C@H](CCCNC(=N)N)C(N)=O
B3: Ac-D-Arg-c[Cys-Pro-His-D-Phe-His-Trp-Cys]-Pro-Pro-D-Arg-Glu-Nle-D-Arg-D-Arg-NH2 (peptide)
peptide: Ac-[dR]CPH[dF]HWCPP[dR]E[Nle][dR][dR]-NH2
modifications: disulfide 2-8
SMILES: CCCC[C@H](NC(=O)[C@H](CCC(=O)O)NC(=O)[C@@H](CCCNC(=N)N)NC(=O)[C@@H]1CCCN1C(=O)[C@@H]1CCCN1C(=O)[C@@H]1CSSC[C@H](NC(=O)[C@@H](CCCNC(=N)N)NC(C)=O)C(=O)N2CCC[C@H]2C(=O)N[C@@H](Cc2c[nH]cn2)C(=O)N[C@H](Cc2ccccc2)C(=O)N[C@@H](Cc2c[nH]cn2)C(=O)N[C@@H](Cc2c[nH]c3ccccc23)C(=O)N1)C(=O)N[C@H](CCCNC(=N)N)C(=O)N[C@H](CCCNC(=N)N)C(N)=O

Legend:
[1] = target: human MC4 receptor (human) (UniProt P32245); experiment: SPA competition binding, displacement of 125I-NDP-α-MSH, BHK membranes with human MC4R
human MC4 receptor (human), sequence (P32245 whole entry): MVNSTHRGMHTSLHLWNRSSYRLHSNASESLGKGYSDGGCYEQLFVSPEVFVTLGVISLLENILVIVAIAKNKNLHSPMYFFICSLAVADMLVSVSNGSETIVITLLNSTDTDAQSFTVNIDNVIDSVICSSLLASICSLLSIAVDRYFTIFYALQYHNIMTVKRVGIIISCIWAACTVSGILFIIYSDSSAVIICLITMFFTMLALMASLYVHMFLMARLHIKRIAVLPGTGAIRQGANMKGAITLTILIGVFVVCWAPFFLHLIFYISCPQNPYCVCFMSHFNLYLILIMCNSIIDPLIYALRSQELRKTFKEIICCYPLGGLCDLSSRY

[2] = target: human MC4 receptor (human) (UniProt P32245); experiment: cell-based or functional assay
[3] = target: human MC1 receptor (human) (UniProt Q01726); experiment: cell-based or functional assay
human MC1 receptor (human), sequence (Q01726 whole entry): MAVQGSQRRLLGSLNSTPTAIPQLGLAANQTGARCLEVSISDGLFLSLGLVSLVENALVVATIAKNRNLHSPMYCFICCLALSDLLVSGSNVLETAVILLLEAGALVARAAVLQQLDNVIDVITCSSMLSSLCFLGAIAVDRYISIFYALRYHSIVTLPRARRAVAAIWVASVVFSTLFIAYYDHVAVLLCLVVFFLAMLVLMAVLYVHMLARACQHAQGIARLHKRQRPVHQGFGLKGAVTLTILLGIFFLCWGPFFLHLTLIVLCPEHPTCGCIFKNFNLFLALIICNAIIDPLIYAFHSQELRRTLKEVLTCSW

[4] = target: human MC1 receptor (human) (UniProt Q01726); experiment: SPA competition binding, displacement of 125I-NDP-α-MSH, BHK membranes with human MC1R

Row | IC50 [1] | MC4R cAMP EC50 [2] | MC1R cAMP EC50 [3] | IC50 [4] | Binder
1 | 390 pM | 190 pM | 179000 pM | 69000 pM | B1
2 | 270 pM | 160 pM | – | 138000 pM | B2
3 | 350 pM | 320 pM | 126000 pM | 44100 pM | B3

Source: patent US20210221867A1, “Compounds Capable of Binding to Melanocortin 4 Receptor” (Novo Nordisk A/S, priority 2018, published 2021)
